Source: the supplement of paper PMC12764529
± gives the half width of the 95% confidence interval.

Assay: folding stability dG unfold (combined trypsin and chymotrypsin); higher = more stable
Summary of the method: (§1)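 How resistant each design was to proteolysis was captured as K50, inferred by Bayesian fitting of sequencing counts. Unfolding free energy was then derived relative to a sequence-predicted unfolded-state K50 and a shared folded-state K50, per protease or combined. Digestion used trypsin and chymotrypsin at 11 threefold-diluted concentrations plus a no-protease condition, on mini-proteins under 80 residues without cysteine in a PA-tagged cDNA display construct. Designs were kept only when AlphaFold2 dimer inter-PAE was above 15.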

| Sequence | folding stability dG unfold [kcal/mol] |
| --- | --- |
| SAGGMVLVRFDSLEEAREHAELLEELGYEVELLPTEDYVLLLVRPLPLPPPTPEELAEALRNPGSALASAGG [r13_8_TrMRF] | 2.53 ± 0.066 |
| SAGGSAGGSAGGMLKTKVTVDPTPDGVTRVTETTYDPSTGALVKTSTTIVVPGTGEVTAVSAGGSAGGSAGG [r7_804_JUSTAS] | 0.669 ± 0.062 |
| SAGGSAGGSAGDNKPKPIKIRIESYYPNGKKQEHDFEVPDPEDLDELAKTNPGYKIDEIESAGGSAGGSAGG [r11_802_TrROS] | 0.478 ± 0.12 |
| SAGKPKELAKKIAEKLAKEFEKKHPDVKIEKVEVKKIEVNPIEGYVKIDIVMYGKNGKLIYKPKITIKSAGG [r19_53_TrMRF] | 3.63 ± 0.14 |
| SAGGSKKPKKIIVIEIPENMTEEEIKKLAEELAKKLNIKKIVKIEKKKDGSVRIVLETKDGKKIEFSAGGSA [r2_168_TrROS_Hall] | 2.63 ± 0.16 |
| SAGGSAGGSAGGKFEIVEVKEEYTLPNGKKVKVFTVKNKDTGKEITFIVDSNGNLKPYPSAGGSAGGSAGGS [r10_1123_TrROS_Hall] | 2.65 ± 0.11 |
| SAGGSMTAPVKVLIKVPPNIPLSDIVKKLSAIPGIGAKPISYDPETGYALVDIGATDPEALKEAIGSAGGSA [r2_305_TrMRF] | 1.9 ± 0.057 |
| SAGGSIRELAKELAREFAEEHGIKEVEVKVEPYPNGWIKIEVSVEGPNGEPIGEWPIQIPIPPDQISAGGSA [r2_153_TrROS] | 0.561 ± 0.11 |
| SAGGSAGGSAPFQIEDIEVEYHRMPPGMPYYPVRARLPGTGREVEIHMPGMPVEDVLDRIIDSAGGSAGGSA [r18_345_TrROS] | -0.141 ± 0.061 |
| SAGGSMKITVTVSYSELKEKYPDLTEEELKELAEEIAKEKKKEIIEGNPDISENTEIEVKIEKPAVIESAGG [r13_634_JUSTAS] | 1.84 ± 0.12 |
| SAGGSAGGSAKPEAVAPAVFTLDGVPYLVPVRVLEAGLSPDQKLLVLGTLPNGEPFLAVFDASAGGSAGGSA [r18_54_TrMRF] | 1.27 ± 0.12 |
| SAGMKEGEVEKVEVEVEITIEVYNENGEKVKTFKAKVKVEVVRNENGELYVKAEIEFEDGTKFEFVVKLSAG [r5_580_TrROS_Hall] | 3.81 ± 0.54 |
| SAGGSAGGSAGDLLKEAVEEAKDSGHPNVPIRFNFPGGTIRITVKVDPKNGKVEIKVEPVSAGGSAGGSAGG [r17_475_TrROS] | 0.645 ± 0.29 |
| SLLENLKIEEIKEYTLPDGSPAIVIRFGDYTIVFNPGTGELRIYKGDKIIRTITIPFPIPDPNKPEDLAASA [r9_1065_TrMRF] | 3.28 ± 0.084 |
| SAGGMELFELEFEAEITPLEEPDKPVPVKIRILKRVEPVPNEPGFKVHYRALLENEEGVVPFEFTLDSAGGS [r16_300_TrMRF] | 1.42 ± 0.085 |
| SAGGSAGGSAISIMIDDPDDLELAEEIANNIRDHFPDFPIKVEVERMPGNPDYYMIRVEWESAGGSAGGSAG [r3_131_TrROS] | 1.66 ± 0.096 |

| Sequence | folding stability dG unfold [kcal/mol] |
| --- | --- |
| SAGGSAGGSMYLIRVTTEDNIELTFLVSEDDIEAFEAFAKALAELFPVPVKVEIEPVEEGEEVSAGGSAGGS [r12_385_TrMRF] | 3.54 ± 0.086 |
| SASMSPEELIEIEIELKRGNRNFTLKIKIPVGLSEEEIEEAIEKAKKELEEKVKKLEEEPPLNPENNLISAG [r14_70_JUSTAS] | 3.11 ± 0.12 |
| SAGGSAGGSAMIEDPATGRVYELDPSVPTVTVYEKTEGEGGEVVEKGVVEADPANPEKALLESAGGSAGGSA [r18_448_JUSTAS] | 0.716 ± 0.069 |
| SAGGNIEVDNDMIEIPFPGGFTIMIRLPPDKGKVTVHIERDPNNPMFREFAKEIADQLPGLPVEVHPWSAGG [r13_34_TrROS] | 0.752 ± 0.08 |
| SAGGPLQIKVEPLNRDPKDGKREVRIEITFPEEDMKKNPENRQLAEYIAKSLAKEPGADKVEVDIHWSAGGS [r16_416_TrROS] | 0.274 ± 0.095 |
| SAGGRIEIDPNSMQIKIYDAEDGEKVEIPINMPPGQIKEIELDPDGKISIRMPMWGQTQELPADDIKSAGGS [r16_410_TrROS] | 0.793 ± 0.16 |
| SAGGSFKIHWFDDPEAAEEAAKDMDPGKIIILPDPKNPKYYIVIVVKDKIFRYEIDNGNIKIEPIPSAGGSA [r2_280_TrROS] | 2.11 ± 0.08 |
| SAGGSAGGSAGGPKIVRIAGNPETGILIIEFENGEKKVIELKQEEADKLAKENPGVEVLTSAGGSAGGSAGG [r7_175_TrMRF] | 0.777 ± 0.11 |
| SAGGSALKNSTLRITVERGNVPFTVEVKLKSVVVDLESGKVDVELPEEFKKLFKGPVKILSLEIPDSAGGSA [r15_710_TrMRF] | 1.53 ± 0.17 |
| SAGGSAGGSAEELAKELAKKLPPGAKFKIEVKTEYYKTKDGKTVKKKVEIKIYNEDGEEVTSAGGSAGGSAG [r3_247_TrROS_Hall] | 0.679 ± 0.32 |
| SSIIIPGLPAEQARQLAKEFAEHYPNYDVKVEYHPDNGMITVDIEMPHKDPDGKPKGWRKMNINIHIWDPSA [r9_378_TrROS] | 1.23 ± 0.2 |
| SAGGSAGGSAGGDPNWVTVTIMIKVPPGDKPIEIEIPNGIKVEYYPFPDDGYLIFKITVRSAGGSAGGSAGG [r7_796_TrROS] | 3.02 ± 0.23 |
| EITIRNPNGMEVKKVEFDPPDSTIKFEFRMPDYYVKIEFQIYPVGGGWVIPIKIEIVPIPPTPAQRKKMQES [r1_154_TrROS] | 2.85 ± 0.25 |
| SAGGSAGGSAGAEITVEYNPETNVLTVTVKVEFTLPDGTKVERTYRATINADGTITIEPESAGGSAGGSAGG [r11_911_TrROS_Hall] | 4.97 ± 0.13 |
| SAGGSSMPLVKKEVDATRPDGSPLSFEEYLSSLKPNIRSEPIPNGKTVVTAPDPATGSTYTITIEESAGGSA [r2_234_JUSTAS] | -0.428 ± 0.079 |

Assay: folding stability dG unfold from chymotrypsin proteolysis; higher = more stable
Summary of the method: as §1

| Sequence | folding stability dG unfold [kcal/mol] |
| --- | --- |
| SAGGMVLVRFDSLEEAREHAELLEELGYEVELLPTEDYVLLLVRPLPLPPPTPEELAEALRNPGSALASAGG [r13_8_TrMRF] | 2.671 ± 0.014 |
| SAGGSAGGSAGGMLKTKVTVDPTPDGVTRVTETTYDPSTGALVKTSTTIVVPGTGEVTAVSAGGSAGGSAGG [r7_804_JUSTAS] | 1.04 ± 0.031 |
| SAGGSAGGSAGDNKPKPIKIRIESYYPNGKKQEHDFEVPDPEDLDELAKTNPGYKIDEIESAGGSAGGSAGG [r11_802_TrROS] | 0.821 ± 0.056 |
| SAGKPKELAKKIAEKLAKEFEKKHPDVKIEKVEVKKIEVNPIEGYVKIDIVMYGKNGKLIYKPKITIKSAGG [r19_53_TrMRF] | 3.96 ± 0.083 |
| SAGGSKKPKKIIVIEIPENMTEEEIKKLAEELAKKLNIKKIVKIEKKKDGSVRIVLETKDGKKIEFSAGGSA [r2_168_TrROS_Hall] | 2.84 ± 0.035 |
| SAGGSAGGSAGGKFEIVEVKEEYTLPNGKKVKVFTVKNKDTGKEITFIVDSNGNLKPYPSAGGSAGGSAGGS [r10_1123_TrROS_Hall] | 2.602 ± 0.025 |
| SAGGSMTAPVKVLIKVPPNIPLSDIVKKLSAIPGIGAKPISYDPETGYALVDIGATDPEALKEAIGSAGGSA [r2_305_TrMRF] | 2 ± 0.029 |
| SAGGSIRELAKELAREFAEEHGIKEVEVKVEPYPNGWIKIEVSVEGPNGEPIGEWPIQIPIPPDQISAGGSA [r2_153_TrROS] | 0.74 ± 0.018 |
| SAGGSAGGSAPFQIEDIEVEYHRMPPGMPYYPVRARLPGTGREVEIHMPGMPVEDVLDRIIDSAGGSAGGSA [r18_345_TrROS] | -0.0225 ± 0.088 |
| SAGGSMKITVTVSYSELKEKYPDLTEEELKELAEEIAKEKKKEIIEGNPDISENTEIEVKIEKPAVIESAGG [r13_634_JUSTAS] | 2.27 ± 0.052 |
| SAGGSAGGSAKPEAVAPAVFTLDGVPYLVPVRVLEAGLSPDQKLLVLGTLPNGEPFLAVFDASAGGSAGGSA [r18_54_TrMRF] | 1.57 ± 0.082 |
| SAGMKEGEVEKVEVEVEITIEVYNENGEKVKTFKAKVKVEVVRNENGELYVKAEIEFEDGTKFEFVVKLSAG [r5_580_TrROS_Hall] | 3.71 ± 0.09 |
| SAGGSAGGSAGDLLKEAVEEAKDSGHPNVPIRFNFPGGTIRITVKVDPKNGKVEIKVEPVSAGGSAGGSAGG [r17_475_TrROS] | 0.445 ± 0.1 |
| SLLENLKIEEIKEYTLPDGSPAIVIRFGDYTIVFNPGTGELRIYKGDKIIRTITIPFPIPDPNKPEDLAASA [r9_1065_TrMRF] | 3.405 ± 0.034 |
| SAGGMELFELEFEAEITPLEEPDKPVPVKIRILKRVEPVPNEPGFKVHYRALLENEEGVVPFEFTLDSAGGS [r16_300_TrMRF] | 1.74 ± 0.085 |
